PMC7587174, “ACE Inhibitory Activity and Molecular Docking of Gac Seed Protein Hydrolysate Purified by HILIC and RP-HPLC” (Molecules, 2020)
Like-named read-outs stand apart in the source and are kept apart here. Residues, ends and D or L forms follow the SMILES beside them. No end group written: not given here.

Tests used:
[1] = molecular target: angiotensin I-converting enzyme (ACE) (Homo sapiens, UniProt P12821); assay: In vitro ACE inhibitory assay (HHL substrate, RP-HPLC detection); format: biochemical; settings: synthetic peptides, purity >95%; HHL substrate 2.5 mM (30 µL), ACE 0.05 mU/µL (20 µL), pre-incubation 37 °C 5 min, incubation 37 °C 30 min; HPLC-UV 228 nm; non-linear regression, nine concentrations, repeated three times; read-out: IC50 of synthetic peptides against ACE
Method: The method to determine the ACE inhibitory activity of gac seeds peptides hydrolysate was adapted according to a previous report with slight modification. Briefly, the sample dissolved in ddH2O (10 µL) was added to 2.5 mM hippuryl-L-histidyl-L-leucine (30 µL). Borate buffer (10 µL) was used as blank solution. In total, 50 µM Captopril (10 µL) was used as positive control. The samples, blank, and positive control were incubated at 37 °C for 5 min. Then, 0.05 mU/µL of ACE (20 µL) was added into each solution. The reaction mixture was incubated at 37 °C for 30 min and mixed in a shaker incubator at 200 rpm for 30 min. The reaction was stopped by adding 1 N HCl (60 µL). After, 0.25 mg/mL ferulic acid (10 µL) was added as an internal standard. Samples were centrifuged (Hitachi Koki Co., Ltd., Tokyo, Japan) at 15,000 rpm for 2 min. The samples were separated by RP-HPLC using a C18 column (4.6 mm × 250 mm, particle size 5 µm) (Macherey-Nagel, Duren, Germany). Samples were selected using an isocratic gradient of 95% solvent A and […] solvent B at a flow rate of 1 mL/min. Solvent A was prepared by 5% acetonitrile + 0.1% trifluoroacetic acid and solvent B was prepared by 95% acetonitrile + 0.1% trifluoroacetic acid. Absorbance was measured using a UV detector at 228 nm. ACE inhibitory activity (%) was examined in triplicate and calculated according to the following equation:ACE-inhibitory activity (%) = [1 − (ΔAinhibition)/(ΔAcontrol)] × 100%, where ΔAinhibition and ΔAcontrol are the peak areas in the sample with or without inhibitor.
The definition of IC50 is the peptide concentration required to inhibit 50% of angiotensin-converting enzyme. The IC50 was calculated using non-linear regression of the ACE inhibitory activity (%) from nine different concentrations. This assay was repeated three times for each experiment.

[2] = molecular target: T1, ACE (Homo sapiens, UniProt P12821); assay: Kinetics of ACE inhibition (Lineweaver-Burk plot); format: biochemical; settings: with increasing ALVY concentration
Method: Kinetics of ACE inhibition was determined by a previous method with some modifications. The hydrolysis rate of HHL by ACE over a range of HHL concentrations of 0.005, 0.1, 0.5, 1, and 2 mM was measured while varying the concentrations of ALVY. The modes of ACE inhibition were determined from Lineweaver-Burk plots while inhibition parameters (Vmax and Km) were calculated, respectively, as the Y- and X-axis intercepts of the primary plot.

[3] = molecular target: T1, ACE; set-up: method as in 6 sources, ref 38 = [38]; PMID 31264418; doi:10.1021/acs.jafc.9b01922; 38. Shih Y.H. Chen F.A. Wang L.F. Hsu J.L. Discovery and study of novel antihypertensive peptides derived from cassia obtusifolia seeds J. Agric. Food Chem. 2019 67 7810 7820 10.1021/acs.jafc.9b01922 ||| ref 39 = [39]; PMID 26948626; doi:10.1016/j.foodchem.2016.02.097; 39. Gangopadhyay N. Wynne K. O’Connor P. Gallagher E. Brunton N.P. Rai D.K. Hayes M. In silico and in vitro analyses of the angiotensin-I converting enzyme inhibitory activity of hydrolysates generate ||| ref 40 = [40]; PMID 26344130; doi:10.1016/j.jprot.2015.08.018; 40. Priyanto A.D. Doerksen R.J. Chang C.-I. Sung W.-C. Widjanarko S.B. Kusnadi J. Lin Y.-C. Wang T.-C. Hsu J.-L. Screening, discovery, and characterization of angiotensin-I converting enzyme inhibitor ||| ref 41 = [41]; PMID 29112398; doi:10.1021/acs.jafc.7b04522; 41. Orio L.P. Boschin G. Recca T. Morelli C.F. Ragona L. Francescato P. Arnoldi A. Speranza G. New ACE-inhibitory peptides from hemp seed ( Cannabis sativa L.) proteins J. Agric. Food Chem. 2017 65 10 ||| ref 42 = [42]; PMID 21381782; doi:10.1021/jf104998s; 42. Yang R. Zou Y. Yu N. Gu Z. Accumulation and identification of angiotensin-converting enzyme inhibitory peptides from wheat germ J. Agric. Food Chem. 2011 59 3598 3605 10.1021/jf104998s 21381782 ||| ...; settings: cited from earlier work
[4] = molecular target: Angiotensin I-converting enzyme (UniProt P12821)
Sequence of Angiotensin I-converting enzyme (P12821 30-1306): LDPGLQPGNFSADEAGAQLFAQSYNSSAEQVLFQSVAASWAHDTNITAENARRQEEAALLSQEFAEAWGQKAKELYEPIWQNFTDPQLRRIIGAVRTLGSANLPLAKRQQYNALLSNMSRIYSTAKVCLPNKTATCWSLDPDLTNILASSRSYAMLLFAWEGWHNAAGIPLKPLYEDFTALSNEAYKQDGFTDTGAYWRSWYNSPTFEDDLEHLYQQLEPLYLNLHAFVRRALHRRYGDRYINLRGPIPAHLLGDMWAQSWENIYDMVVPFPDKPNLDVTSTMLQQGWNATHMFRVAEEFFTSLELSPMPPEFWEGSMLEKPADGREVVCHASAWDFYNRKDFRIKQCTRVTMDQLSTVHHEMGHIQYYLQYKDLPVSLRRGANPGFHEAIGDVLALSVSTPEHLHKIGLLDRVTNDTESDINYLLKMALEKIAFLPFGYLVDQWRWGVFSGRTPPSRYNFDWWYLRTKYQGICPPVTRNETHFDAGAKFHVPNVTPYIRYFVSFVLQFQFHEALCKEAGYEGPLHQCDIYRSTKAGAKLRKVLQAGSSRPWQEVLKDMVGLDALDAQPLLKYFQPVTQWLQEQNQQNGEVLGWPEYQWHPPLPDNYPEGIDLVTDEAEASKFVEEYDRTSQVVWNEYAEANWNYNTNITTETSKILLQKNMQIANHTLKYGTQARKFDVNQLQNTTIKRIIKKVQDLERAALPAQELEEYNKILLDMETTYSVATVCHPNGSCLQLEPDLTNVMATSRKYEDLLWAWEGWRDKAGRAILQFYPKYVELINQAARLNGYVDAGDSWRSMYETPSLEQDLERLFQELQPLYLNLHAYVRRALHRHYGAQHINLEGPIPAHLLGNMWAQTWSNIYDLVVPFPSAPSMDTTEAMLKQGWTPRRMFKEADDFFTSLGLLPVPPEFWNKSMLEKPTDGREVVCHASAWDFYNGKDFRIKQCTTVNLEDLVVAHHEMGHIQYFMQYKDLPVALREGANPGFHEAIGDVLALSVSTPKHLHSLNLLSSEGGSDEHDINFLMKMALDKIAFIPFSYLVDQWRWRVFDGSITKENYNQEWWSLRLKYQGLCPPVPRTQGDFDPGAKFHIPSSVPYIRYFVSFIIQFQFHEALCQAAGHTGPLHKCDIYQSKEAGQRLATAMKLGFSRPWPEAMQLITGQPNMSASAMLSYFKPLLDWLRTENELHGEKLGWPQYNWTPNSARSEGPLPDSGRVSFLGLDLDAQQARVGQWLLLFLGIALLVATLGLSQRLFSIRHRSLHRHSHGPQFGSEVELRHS

T1 sequence (P12821 30-1306, species assumed): as the sequence (P12821 30-1306) above
Sequence of angiotensin I-converting enzyme (ACE) (P12821 30-1306, species assumed): as the sequence (P12821 30-1306) above

With `CC(C)C[C@H](NC(=O)[C@H](C)N)C(=O)N[C@H](C(=O)N[C@@H](Cc1ccc(O)cc1)C(=O)O)C(C)C` [ALVY] (H-ALVY-OH) the IC50 [1] was 7.03 ± 0.09 µM and the “Effect on Km” value [2] was “increased with the increasing peptide concentration”.

Molecule `CC(C)C[C@H](NC(=O)[C@@H](N)CC(C)C)C(=O)N[C@H](C(=O)N[C@@H](Cc1ccc(O)cc1)C(=O)O)C(C)C` [LLVY] (H-LLVY-OH) has an IC50 [1] of 87.8 ± 3.37 µM.

For “FHAPWK [peptide from Cassia obtusifolia seeds]”, the IC50 ([3]; Cassia obtusifolia seeds, read-out: IC50 (Cassia obtusifolia seeds peptide)) is given as 16.8 µM.

Work on LLAPHY [LLAPHY] yielded an IC50 [1] of 15.9 ± 0.52 µM.

With LSTSTDVR-OH [LSTSTDVR] the IC50 [1] was > 167 µM.

In the case of “VSGAGRY [peptide from bitter melon seeds]”, the IC50 ([3]; bitter melon seeds, read-out: IC50 (bitter melon seeds peptide)) is given as 8.6 µM.

Work on ALVY yielded an IC50 of ACE inhibitory activity (hydrolysis of hippuryl-L-histidyl-L-leucine by ACE, 37 °C, RP-HPLC read-out at 228 nm; synthetic peptide, nine concentrations) [4] of 7.03 µM.

For LLVY, the IC50 of ACE inhibitory activity (hydrolysis of hippuryl-L-histidyl-L-leucine by ACE, 37 °C, RP-HPLC read-out at 228 nm; synthetic peptide, nine concentrations) [4] was 87.8 µM.

For LSTSTDVR, the IC50 of ACE inhibitory activity (hydrolysis of hippuryl-L-histidyl-L-leucine by ACE, 37 °C, RP-HPLC read-out at 228 nm; synthetic peptide, nine concentrations) [4] was > 167 µM.

LLAPHY gave an IC50 of ACE inhibitory activity (hydrolysis of hippuryl-L-histidyl-L-leucine by ACE, 37 °C, RP-HPLC read-out at 228 nm; synthetic peptide, nine concentrations) [4] of 15.9 µM.
